Assay results as given in US7238711.
Values joined by “and” are separate entries in the source; they are usually repeats but may differ in a detail not shown here. Equal entries are not always repeated. No end group written: not given here.

Key:
MCP-1 (human), P13500 = assay: cell-based or functional assay
[1] = molecular target: T1, Duffy Antigen Receptor for Chemokines (DARC) (human), Q16570; assay: ka for red blood cells divided by ka for THP-1 cells
T1 chain: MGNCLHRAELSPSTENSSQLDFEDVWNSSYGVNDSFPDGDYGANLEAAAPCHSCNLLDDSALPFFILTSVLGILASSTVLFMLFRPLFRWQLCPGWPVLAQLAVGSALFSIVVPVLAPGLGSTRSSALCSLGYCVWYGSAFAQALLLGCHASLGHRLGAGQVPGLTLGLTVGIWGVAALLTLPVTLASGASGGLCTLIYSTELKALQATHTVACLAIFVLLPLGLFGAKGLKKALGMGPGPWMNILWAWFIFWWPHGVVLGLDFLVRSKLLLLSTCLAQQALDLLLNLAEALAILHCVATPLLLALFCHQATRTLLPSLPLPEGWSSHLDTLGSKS

[2] = molecular target: T1, Duffy Antigen Receptor for Chemokines …; assay: estimated ka for red blood cells divided by average inhibitory ED50
[3] = molecular target: Duffy Antigen Receptor for Chemokines (DARC) (human) (UniProt Q16570); assay: estimated ka for red blood cells divided by average inhibitory ED50
[4] = molecular target: chemokine receptors on THP-1 cells; assay: binding to THP-1 cells
[5] = molecular target: T1, Duffy Antigen Receptor for Chemokines …; assay: DARC binding
CCR5 (human), P51681 [6] = assay: 12-point Scatchard, HOS CCR5 line; details: remark: other sources report otherwise
Chain of CCR5 (human), P51681 (P51681 whole entry): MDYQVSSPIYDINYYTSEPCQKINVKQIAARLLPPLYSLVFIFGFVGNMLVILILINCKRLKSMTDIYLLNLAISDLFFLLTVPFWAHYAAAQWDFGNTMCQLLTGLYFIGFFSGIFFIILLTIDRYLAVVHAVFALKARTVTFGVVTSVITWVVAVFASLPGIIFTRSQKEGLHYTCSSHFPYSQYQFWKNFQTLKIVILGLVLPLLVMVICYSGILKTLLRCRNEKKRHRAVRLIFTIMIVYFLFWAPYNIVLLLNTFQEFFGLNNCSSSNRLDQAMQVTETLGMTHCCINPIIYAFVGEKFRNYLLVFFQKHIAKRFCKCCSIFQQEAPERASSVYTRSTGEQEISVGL

CCR5 (human), P51681 [7] = assay: 125I-RANTES Scatchard, HOS CCR5 line; details: remark: other sources report otherwise
CCR5 (human), P51681 [8] = assay: 12-point Scatchard, 0.03 nM 125I-RANTES with cold RANTES, 4° C., 2 hours; details: remark: other sources report otherwise
CCR5 (human), P51681 [9] = assay: 12-point Scatchard, parental HOS line (the filing suggests background CCR5); details: remark: other sources report otherwise
CCR5 (human), P51681 [10] = assay: 125I-RANTES Scatchard, parental HOS line (the filing suggests background CCR5); details: remark: other sources report otherwise
[11] = molecular target: chemokine receptors on THP-1 cells; assay: receptors on THP-1 cells against DARC
[12] = molecular target: Duffy Antigen Receptor for Chemokines (DARC) (human) (UniProt Q16570); assay: Duffy binding
[13] = molecular target: Duffy Antigen Receptor for Chemokines (DARC) (human) (UniProt Q16570); assay: DARC binding, Table 18
[14] = molecular target: Duffy Antigen Receptor for Chemokines (DARC) (human) (UniProt Q16570); assay: Duffy binding, against the LFL peptide
CCR5 (human) = CCR5 (human) (UniProt P51681); assay: not stated (printed as affinity constant)
Chain of CCR5 (human) (P51681 whole entry): as above

CXCR4 (human) = CXCR4 (human) (UniProt P61073); assay: not stated (printed as affinity constant)
[15] = molecular target: chemokine receptors on the surface of Jurkat cells; assay: binding to Jurkat cells
[16] = molecular target: chemokine receptors on THP-1 cells; assay: binding to THP-1 cells (given as association constant)
[17] = molecular target: Duffy Antigen Receptor for Chemokines (DARC) (human) (UniProt Q16570); assay: DARC binding, red blood cells (given as association constant)
[18] = molecular target: cell surface molecule on THP-1 cells; assay: binding of biotinylated peptide 3 to THP-1 cells, labeled streptavidin
CXCR1 (human), P25024 = molecular target: T2, CXCR1 (human), P25024; assay: biotin-labeled peptide at 10 µM on CHO transformants, 125I-streptavidin
T2 chain: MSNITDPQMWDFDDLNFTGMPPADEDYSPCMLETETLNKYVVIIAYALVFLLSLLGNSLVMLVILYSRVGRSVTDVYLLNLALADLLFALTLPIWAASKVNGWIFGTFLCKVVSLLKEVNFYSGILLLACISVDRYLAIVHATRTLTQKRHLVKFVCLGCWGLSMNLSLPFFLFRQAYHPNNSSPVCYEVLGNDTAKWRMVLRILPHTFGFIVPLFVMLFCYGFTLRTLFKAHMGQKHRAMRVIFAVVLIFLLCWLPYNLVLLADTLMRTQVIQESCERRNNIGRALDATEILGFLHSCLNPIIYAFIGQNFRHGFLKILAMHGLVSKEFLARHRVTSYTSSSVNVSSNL

CXCR2 (human), P25025 = molecular target: T3, CXCR2 (human), P25025; assay: as above
T3 chain: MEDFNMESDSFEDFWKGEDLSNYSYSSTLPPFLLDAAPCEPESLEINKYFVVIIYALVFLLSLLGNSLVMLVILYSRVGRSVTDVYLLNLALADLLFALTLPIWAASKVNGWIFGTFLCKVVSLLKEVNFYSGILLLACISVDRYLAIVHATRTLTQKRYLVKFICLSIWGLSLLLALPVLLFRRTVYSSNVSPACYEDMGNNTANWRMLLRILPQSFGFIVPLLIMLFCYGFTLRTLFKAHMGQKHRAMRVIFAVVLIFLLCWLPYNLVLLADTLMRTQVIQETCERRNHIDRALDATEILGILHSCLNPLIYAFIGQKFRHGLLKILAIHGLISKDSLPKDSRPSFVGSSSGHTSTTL

CCR1 (human), P32246 = molecular target: T4, CCR1 (human), P32246; assay: biotin-labeled peptide at 10 µM on HOS transformants, 125I-streptavidin
T4 chain: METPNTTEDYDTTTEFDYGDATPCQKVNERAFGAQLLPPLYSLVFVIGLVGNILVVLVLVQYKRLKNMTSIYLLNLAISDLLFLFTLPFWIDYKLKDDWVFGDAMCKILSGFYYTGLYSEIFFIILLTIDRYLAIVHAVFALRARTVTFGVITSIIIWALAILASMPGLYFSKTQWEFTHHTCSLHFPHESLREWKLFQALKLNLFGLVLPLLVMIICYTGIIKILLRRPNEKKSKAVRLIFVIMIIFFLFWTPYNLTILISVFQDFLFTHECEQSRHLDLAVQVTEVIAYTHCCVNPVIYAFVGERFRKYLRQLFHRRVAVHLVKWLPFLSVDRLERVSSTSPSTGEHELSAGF

CCR2 (human), P41597 = assay: as above
Chain of CCR2 (human), P41597 (P41597 whole entry): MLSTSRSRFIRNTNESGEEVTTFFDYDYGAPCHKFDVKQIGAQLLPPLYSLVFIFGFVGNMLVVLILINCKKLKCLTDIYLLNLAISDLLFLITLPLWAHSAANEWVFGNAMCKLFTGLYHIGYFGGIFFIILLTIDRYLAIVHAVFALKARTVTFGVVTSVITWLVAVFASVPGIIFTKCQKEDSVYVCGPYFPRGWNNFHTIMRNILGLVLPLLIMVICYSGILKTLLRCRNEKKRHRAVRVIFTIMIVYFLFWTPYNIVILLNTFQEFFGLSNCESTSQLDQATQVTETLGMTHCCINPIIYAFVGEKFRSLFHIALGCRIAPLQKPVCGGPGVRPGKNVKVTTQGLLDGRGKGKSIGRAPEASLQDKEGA

CCR3 (human), P51677 = molecular target: T5, CCR3 (human), P51677; assay: as above
T5 chain: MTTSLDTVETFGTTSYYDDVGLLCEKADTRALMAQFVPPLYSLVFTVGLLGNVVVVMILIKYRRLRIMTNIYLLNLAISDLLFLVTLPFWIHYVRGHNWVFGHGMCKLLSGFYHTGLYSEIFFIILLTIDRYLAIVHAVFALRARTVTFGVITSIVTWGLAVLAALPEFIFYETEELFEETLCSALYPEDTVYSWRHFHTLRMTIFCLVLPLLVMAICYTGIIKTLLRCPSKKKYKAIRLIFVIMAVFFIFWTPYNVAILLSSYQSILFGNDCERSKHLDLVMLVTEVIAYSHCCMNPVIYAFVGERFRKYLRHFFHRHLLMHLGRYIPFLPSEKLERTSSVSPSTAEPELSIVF

CCR4 (human), P51679 = molecular target: T6, CCR4 (human), P51679; assay: as above
T6 chain: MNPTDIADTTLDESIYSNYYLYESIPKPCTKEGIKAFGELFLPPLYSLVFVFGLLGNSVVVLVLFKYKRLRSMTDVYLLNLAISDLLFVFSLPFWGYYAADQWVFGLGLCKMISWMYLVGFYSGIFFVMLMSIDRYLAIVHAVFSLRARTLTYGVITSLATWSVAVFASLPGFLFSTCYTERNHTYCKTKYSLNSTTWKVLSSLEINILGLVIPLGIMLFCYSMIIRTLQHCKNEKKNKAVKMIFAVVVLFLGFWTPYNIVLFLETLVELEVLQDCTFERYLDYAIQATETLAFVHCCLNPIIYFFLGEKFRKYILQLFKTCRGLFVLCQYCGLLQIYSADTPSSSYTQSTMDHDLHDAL

CCR5 (human), P51681 [19] = assay: as above
CXCR4 (human), P61073 = molecular target: T7, CXCR4 (human), P61073; assay: as above
T7 chain: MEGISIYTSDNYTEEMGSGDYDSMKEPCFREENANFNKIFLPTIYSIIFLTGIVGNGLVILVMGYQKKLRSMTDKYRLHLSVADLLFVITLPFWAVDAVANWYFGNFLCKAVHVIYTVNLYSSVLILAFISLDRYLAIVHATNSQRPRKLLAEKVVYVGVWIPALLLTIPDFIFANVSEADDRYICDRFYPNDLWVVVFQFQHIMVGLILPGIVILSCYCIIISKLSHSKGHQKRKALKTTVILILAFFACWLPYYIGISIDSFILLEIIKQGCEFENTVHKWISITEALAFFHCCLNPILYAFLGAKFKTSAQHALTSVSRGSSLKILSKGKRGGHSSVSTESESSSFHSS

CCR5 (human), P51681 [20] = assay: cell-based or functional assay

Chain of MCP-1 (human), P13500 (P13500 24-99 limits assumed): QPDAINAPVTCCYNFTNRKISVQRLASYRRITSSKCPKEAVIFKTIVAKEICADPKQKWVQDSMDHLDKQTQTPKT

## AQPDAINAPVTCC (not fully specified; cysteine pairing not given here) [Peptide 1[MCP-1]]
MCP-1 (human), P13500
  inhibition of MCP-1 induced THP-1 migration, peptide with the chemokine in the lower compartment: 48%

## ELRVIESGPHCANTEI (not fully specified) [Pep2(1-16)[IL8]]
[1]
  Duffy selectivity: < 1

## EICADPSEEWVQ (not fully specified) [Ser7Glu8Glu9 peptide 3(1-12)[MCP-1]]
[2]
  Duffy selectivity: 0.59

## HLKILNTPNCALQIV [Pep2(1-15)[SDF1]]
Chemokine receptors
  IC50: 35 µM

## CQVWKQKPDAC (not fully specified (some residues, bridges); cysteine pairing not given here) [CRD-Cys13pep3[3-12]]
[3]
  Duffy selectivity: 8.82

## DYFETSSQCSKPGV [Pep2(1-14)[MIP1α]]
Chemokine receptors
  IC50: > 100 µM
[4]
  binding sites per cell (sites per cell): 150000

## SYRRITSSKSPKEAV (not fully specified) [Ser10 variant of peptide 2(1-15)[MCP-1]]
[5]
  DARC binding: 20 to 100 µM

B1: RANTES, P13501 24-91 (ligand, UniProt P13501 24-91, looked up)
chain: SPYSSDTTPCCFAYIARPLPRAHIKEYFYTSGKCSNPAVVFVTRKNRQVCANPEKKWVREYINSLEMS
CCR5 (human), P51681 [6]
  binding sites per cell (sites per cell): 200000
CCR5 (human), P51681 [7]
  binding sites per cell (sites per cell): 200000 and 400000
CCR5 (human), P51681 [8]
  Kd: 0.001 µM
CCR5 (human), P51681 [9]
  binding sites per cell (sites per cell): 100000
CCR5 (human), P51681 [10]
  binding sites per cell (sites per cell): 80000

## EICLDPKQKWIQ (not fully specified) [Leu4Ile11 peptide 3(1-12)[MCP-1]]
[11]
  fold selectivity over DARC: > 20 fold
[2]
  Duffy selectivity: 37.8

## VAEKPCKSSTIRRYS (not fully specified (some residues)) [LRD peptide 2(1-15)[MCP-1]]
Chemokine receptors
  IC50: 3 µM
[12]
  Kd: 25 µM
[13]
  DARC binding: 18 µM
[14]
  fold decrease in Duffy binding against LFL: 100 fold
CCR5 (human)
  Kd: < 0.1 µM
CXCR4 (human)
  Kd: < 0.1 µM

## SYRRITSSKCPKEAV [peptide 2(1-15)[MCP-1]]
Chemokine receptors
  IC50: 0.4 µM
[4]
  binding sites per cell: 130000 sites/cell
[15]
  binding sites per cell: 55000 sites/cell

## CQIWKQKPDLC (not fully specified (some residues, bridges); cysteine pairing not given here) [CRD-Cys13Leu4Ile11 peptide 3(3-12)[MCP-1]]
[4]
  binding sites per cell (sites per cell): 150000
[16]
  Kd: 0.1 to 0.5 µM
[17]
  Kd: 90 µM
[3]
  Duffy selectivity: > 100

## CLDPKQKWIQC (not fully specified (N-terminus); cysteine pairing not given here) [N-terminal biotin conjugate of the sequence n'-…-c']
[18]
  binding sites per cell (receptors/cell): 1000
CXCR1 (human), P25024
  Kd: > 10 µM
CXCR2 (human), P25025
  Kd: > 10 µM
CCR1 (human), P32246
  Kd: > 10 µM
CCR2 (human), P41597
  Kd: > 10 µM
CCR3 (human), P51677
  Kd: > 10 µM
CCR4 (human), P51679
  Kd: > 10 µM
CCR5 (human), P51681 [19]
  Kd: > 10 µM
CXCR4 (human), P61073
  Kd: > 10 µM

## EICADPKQKWVQ (not fully specified) [peptide 3(1-12)[MCP-1]]
CCR5 (human), P51681 [20]
  decrease in HIV infection of THP-1 cells, immunofluorescence staining: 83%
[2]; remark: other sources report otherwise
  Duffy selectivity: 1

## CADPKQKWVQ (not fully specified) [Pep3(3-12)[MCP-1]]
[2]
  Duffy selectivity: 1.21

## EICADPSQKWVQ (not fully specified) [Ser7 peptide 3(1-12)[MCP-1]]
[2]
  Duffy selectivity: 2
